Measured values published in patent US10568949B2, “Method of eliciting an anti-tumor immune response with controlled delivery of TLR agonists in porous polymerlc devices” (President and Fellows of Harvard College, priority 2008, dated 2020).

B1: granulocyte macrophage colony stimulating factor (protein, UniProt P01587 18-141, looked up)
Granulocyte-macrophage …: APTRSPITVTRPWKHVEAIKEALNLLDDMPVTLNEEVEVVSNEFSFKKLTCVQTRLKIFEQGLRGNFTKLKGALNMTASYYQTYCPPTPETDCETQVTTYADFIDSLKTFLTDIPFECKKPGQK
notes: cytokine encapsulated in and released from PLG matrices to recruit DCs

How the values were obtained:
[1] = tested on: host DCs; assay: In vivo DC emigration from FITC painted scaffolds to inguinal lymph nodes; set-up: species or system C57BL/6J mice; conditions: mouse
Protocol: Blank scaffolds and scaffolds containing GM-CSF with or without 10 μg PEI-ODN control (5′-tcc atg agc ttc ctg agc tt-3′) (SEQ ID NO: 6) or 10 μg PEI-CpG-ODN condensate loaded scaffolds were implanted into subcutaneous pockets on the back of 7-9 week old male C57BL/6J mice. For histological examination scaffolds were excised and fixed in Z-fix solution, embedded in paraffin, and stained with hematoxylin and eosin. To analyze DC recruitment, scaffolds were excised and the ingrown tissue was digested into single cell suspensions using a collagenase solution (Worthingtion, 250 U/ml) that was agitated at 37° C. for 45 minutes. The cell suspensions were then poured through a 40 μm cell strainer to isolate cells from scaffold particles and the cells were pelleted and washed with cold PBS and counted using a Z2 coulter counter (Beckman Coulter). The resultant cell populations were then stained with primary antibodies (BD Pharmingen, San Diego, Calif.) conjugated to fluorescent markers to allow for analysis by flow cytometry. […] Cells were gated according to positive FITC, APC and PE using isotype controls, and the percentage of cells staining positive for each surface antigen was recorded. […]

[2] = In vivo GM-CSF concentration in tissue around PLG implant; set-up: species or system C57BL/6J mice; conditions: for GM-CSF concentration in surrounding tissue: peak
[3] = tested on: dendritic cells; assay: Example 8: DC recruitment and activation in cytokine loaded PLG matrices (FACS, day 7); format: in vivo, C57BL/6J mice
Protocol: To analyze DC recruitment by FACS analysis, scaffolds were excised and the ingrown tissue was digested into single cell suspensions using a collagenase solution (Worthingtion, 250 U/ml) that was agitated at 37° C. for 45 minutes. The cell suspensions were then poured through a 40 μm cell strainer to isolate cells from scaffold particles and the cells were pelleted and washed with cold PBS and counted using a Z2 coulter counter (Beckman Coulter). To assess, DC infiltration and activation, subsets of the total cell population isolated from PLG matrices were then stained with primary antibodies (BD Pharmingen, San Diego, Calif.) conjugated to fluorescent markers to allow for analysis by flow cytometry. APC-conjugated CD11c (dendritic cell marker), FITC-conjugated MHCII and PE-conjugated CD86 (B7, costimulatory molecule) stains were conducted for DC recruitment and activation analysis. To delineate the presence of the plasmacytoid DC subset, cells were also stained with APC-conjugated CD11c and PE-conjugated PDCA-1 (plasmacytoid DC marker). Cells were gated according to single positive FITC, APC and PE stainings using isotype controls. The percentage of cells staining positive for each surface antigen was recorded.

[4] = tested on: B16-F10 melanoma cells; assay: Example 8: therapeutic vaccination, B16-F10 melanoma; format: in vivo, C57BL/6J mice; conditions: vaccinated three days after tumor challenge
Protocol: PLG scaffolds containing B16-F10 melanoma tumor lysates, 100 μg CpG-ODN in combination with 3 μg GM-CSF, Flt3L or CCL20 were implanted subcutaneously into the lower left flank of C57BL/6J mice to act as cancer vaccines. To assess PLG vaccine efficacy in the therapeutic setting, C57/BL6J mice were challenged with a subcutaneous injection of 5×10^5 B16-F10 melanoma cells (ATCC, Manassas, N.J.) in the back of the neck, and 3 days after tumor challenge PLG vaccines were implanted subcutaneously into the lower left flank. Animals were monitored for the onset of tumor growth (approximately 1 mm^3) and sacrificed for humane reasons when tumors grew to 20-25 mm (longest diameter).

[5] = tested on: bone marrow derived dendritic cells; assay: Example 8: transwell chemotaxis and chemokinesis of bone marrow derived DCs; format: cell-based, C57BL/6 mice; conditions: 12 h
Protocol: Primary bone-marrow-derived dendritic cells (BMDCs) were flushed from the femurs of C57BL/6 mice and cultured in 100-mm bacteriological petri dishes (Falcon number 1029/Becton Dickinson). Cell culture medium RPMI-1640 (R10) (Sigma) was supplemented with 1% Penicillin-Streptomycin (Invitrogen), 2 mM 1-Glutamine (Invitrogen), 50 μM 2-mercaptoethanol (Sigma) and 10% heat-inactivated fetal bovine serum (FBS, Invitrogen). At day 0, bone marrow leukocytes were seeded at 2×10^6 cells per 100-mm dish in 10 ml R10 medium containing 20 ng/nil granulocyte-macrophage colony-stimulating factor (GM-CSF) (Peprotech). At day 3, another 10 ml R10 medium containing 20 ng/mL GM-CSF was added. to the plates. At days 6 and 8, half of the culture supernatant was collected and centrifuged, the cell pellet was resuspended in 10 ml fresh R10 containing 20 ng/mL GM-CSF, and placed back into the original plate. The non-adherent cell population in the culture supernatant was used between days 8 and 12 for all the experiments.
Transwell migration studies were performed by plating bone marrow derived dendritic cells in the top well of 6.5 mm transwell dishes (Costar, Cambridge, Mass.) with a pore size of 5 μm. The chemotactic effects of GM-CSF, FL (Flt3), and CCL20 on the migration of BMDCs was assessed by placing 500 ng/ml of recombinant murine GM-CSF, FL or CCL20 (Peprotech, Rocky Hill, N.J.) in the bottom wells and 3×10^5 DCs in the top wells. For chemokinesis studies, the concentration of cytokine in each compartment was equal at 500 ng/ml and 3×10^5 DCs were added to the top wells. The number of cells that migrated from the top well to the bottom well through the porous membrane was counted at the end of 12 h to quantify migration. Cells that had migrated to the bottom well were collected by treatment with 0.25% trypsin-0.03% ethylenediaminetetraacetic acid (EDTA, Invitrogen) and counted with a Z2 coulter counter (Beckman Coulter, Inc).

Molecule | increase in number of DCs recruited to matrices and subsequently dispersed to the lymph nodes [1] [fold] | day of secondary peak for GM-CSF in vivo ([2]; 3000 ng dose) [days] | day of secondary peak for GM-CSF in vivo ([2]; 7000 ng dose) [days] | GM-CSF concentration difference over no incorporated GM-CSF ([2]; 12 hours post-implantation) [fold] | period elevated GM-CSF levels were maintained ([2]; mouse, in vivo) | GM-CSF concentration in surrounding tissue ([2]; 12 hours post-implantation, 1-3 mm from implant site) [µg/mL] | GM-CSF concentration in surrounding tissue ([2]; 12 hours post-implantation, 3-5 mm from implant site) [µg/mL] | DC recruitment relative to blank PLG matrices ([3]; day 7) [fold] | MHCII(+) and CD86(+) DCs of total DCs recruited ([3]; in combination with CpG-ODN) | increase in total number of activated DCs relative to control matrices devoid of cytokines ([3]; in combination with CpG-ODN) | resident CD11c(+)PDCA-1(+) pDCs ([3]; in combination with CpG-ODN) | long-term survival rate [4] [%] | DC chemotaxis, migration higher than control condition ([5]; 500 ng/ml in bottom wells) | DC chemokinesis, increase in number of migrated cells ([5]; homogenous cytokine 500 ng/ml) [%]
CpG-ODN 1826 | 6 |  |  |  |  |  |  |  |  |  |  |  |  | 
B1 |  | 5 | 7 | > 30 | approximately 10 days | 100 | 30 | > 5 | 54-66% | Approximately 8 fold | approximately 110,000 | 88 | approximately 50% | 50
